Assay in all cases: cell-based or functional assay
The target in assay [1] is SARS-CoV-2 spike (S) protein of the variant printed 'BA.1' in column 9 of Table 32 (SARS-CoV-2).
In assay [2] the target is synthetic SARS-CoV-2 spike 'BA.4 + all' (SARS-CoV-2 (synthetic variant)).
Assay [3] addresses SARS-CoV-2 Omicron BA.3 spike (S) protein (SARS-CoV-2).
Assay [4] has as its target SARS-CoV-2 Omicron BA.1 spike (S) protein (SARS-CoV-2).
Assay [5] deals with SARS-CoV-2 Omicron BA.2 spike (S) protein (SARS-CoV-2).

This is an account of results in US20230265170A1.

Sequence of Omi-32 (antibody) (VH): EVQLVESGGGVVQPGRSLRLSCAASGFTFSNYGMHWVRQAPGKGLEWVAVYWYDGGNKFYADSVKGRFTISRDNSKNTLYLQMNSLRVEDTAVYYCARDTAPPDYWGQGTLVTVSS
Sequence of Omi-32 (antibody) (VL): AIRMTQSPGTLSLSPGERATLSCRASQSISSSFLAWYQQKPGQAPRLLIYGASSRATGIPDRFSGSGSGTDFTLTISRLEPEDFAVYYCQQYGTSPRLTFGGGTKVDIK
Sequence of AZD8895 (antibody) (VH): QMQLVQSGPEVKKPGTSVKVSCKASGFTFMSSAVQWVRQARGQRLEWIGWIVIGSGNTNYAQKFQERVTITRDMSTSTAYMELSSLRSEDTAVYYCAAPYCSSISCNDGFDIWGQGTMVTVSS
Sequence of AZD8895 (antibody) (VL): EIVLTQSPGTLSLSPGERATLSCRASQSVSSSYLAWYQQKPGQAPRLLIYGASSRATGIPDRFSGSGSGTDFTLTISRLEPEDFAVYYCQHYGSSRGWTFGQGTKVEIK
Sequence of Omi-18 (antibody) (VH): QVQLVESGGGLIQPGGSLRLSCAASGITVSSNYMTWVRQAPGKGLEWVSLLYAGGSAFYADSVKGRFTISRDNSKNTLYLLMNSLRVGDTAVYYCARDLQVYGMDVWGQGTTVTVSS
Sequence of Omi-18 (antibody) (VL): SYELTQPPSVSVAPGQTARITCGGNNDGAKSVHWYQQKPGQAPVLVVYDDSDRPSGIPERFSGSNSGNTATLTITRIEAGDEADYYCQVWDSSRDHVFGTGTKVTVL
Sequence of Omi-42 (antibody) (VH): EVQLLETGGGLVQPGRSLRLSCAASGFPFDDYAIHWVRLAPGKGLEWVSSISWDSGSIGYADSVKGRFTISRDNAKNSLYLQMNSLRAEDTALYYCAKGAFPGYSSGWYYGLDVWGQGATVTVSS
Sequence of Omi-42 (antibody) (VL): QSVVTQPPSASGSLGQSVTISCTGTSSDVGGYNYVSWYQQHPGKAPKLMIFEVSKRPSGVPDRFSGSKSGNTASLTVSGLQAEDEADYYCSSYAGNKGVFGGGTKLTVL
Sequence of Omi-29 (antibody) (VH): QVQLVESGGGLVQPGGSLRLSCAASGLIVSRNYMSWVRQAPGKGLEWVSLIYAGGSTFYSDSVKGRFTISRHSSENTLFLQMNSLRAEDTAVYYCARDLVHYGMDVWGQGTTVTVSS
Sequence of Omi-29 (antibody) (VL): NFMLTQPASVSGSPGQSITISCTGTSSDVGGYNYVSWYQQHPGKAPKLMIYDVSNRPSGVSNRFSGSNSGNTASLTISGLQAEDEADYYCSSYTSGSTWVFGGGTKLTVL
Sequence of Omi-12 (antibody) (VH): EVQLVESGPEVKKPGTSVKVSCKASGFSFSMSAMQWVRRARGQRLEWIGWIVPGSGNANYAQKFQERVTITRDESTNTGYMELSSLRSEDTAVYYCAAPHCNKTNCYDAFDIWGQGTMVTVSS
Sequence of Omi-12 (antibody) (VL): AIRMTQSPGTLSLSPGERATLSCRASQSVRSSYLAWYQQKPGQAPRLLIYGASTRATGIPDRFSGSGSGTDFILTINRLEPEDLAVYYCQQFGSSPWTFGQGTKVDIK

For ADG20 (antibody), the IC50 (pseudovirus neutralization) in assay [1] and in assay [2] was over 10 µg/mL throughout.

AZD1061 (antibody): the IC50 (pseudovirus neutralization) in assay [1] and in assay [2] was over 10 µg/mL in each case.

Turning to AZD7442, the IC50, pseudoviral neutralization in assay [3] turned out to be 0.065 µg/mL; in assay [4] it was 0.232 µg/mL; in assay [5] it was 0.008 µg/mL. For the same substance, the figures for the IC50 (pseudovirus neutralization) in assay [1] and in assay [2] were 2.73 µg/mL and over 10 µg/mL, respectively.

Consider AZD8895 (antibody), for which the IC50 (pseudovirus neutralization) in assay [1] is 5.11 µg/mL; in assay [2], over 10 µg/mL.

Regarding Ly-CoV16 (antibody), the IC50 (pseudovirus neutralization) in assay [1] and in assay [2] was over 10 µg/mL in each case.

Take Ly-CoV555 (antibody): the IC50 (pseudovirus neutralization) in assay [1] and in assay [2] was over 10 µg/mL throughout.

Take Ly-CoV1404 (antibody): the IC50 (pseudovirus neutralization) in assay [1] and in assay [2] was over 10 µg/mL each time.

With Omi-03 (antibody), the IC50 (pseudovirus neutralization) came to 0.014 µg/mL in assay [1] and 0.432 µg/mL in assay [2].

For the substance Omi-12 (antibody), the IC50 (pseudovirus neutralization) is 0.004 µg/mL in assay [1] and over 10 µg/mL in assay [2].

Regarding Omi-18 (antibody), the IC50 (pseudovirus neutralization) in assay [1] worked out at 0.005 µg/mL; in assay [2], 3.61 µg/mL.

As for Omi-29 (antibody), the values for the IC50 (pseudovirus neutralization) in assay [1] and in assay [2] were 0.025 µg/mL and over 10 µg/mL, respectively.

Consider Omi-32 (antibody), for which the IC50 (pseudovirus neutralization) in assay [1] and in assay [2] was over 10 µg/mL in each case.

In the case of Omi-42 (antibody), the IC50 (pseudovirus neutralization) is 0.01 µg/mL in assay [1] and 0.008 µg/mL in assay [2].

Consider REGN10933 (antibody), for which the IC50 (pseudovirus neutralization) in assay [1] and in assay [2] was over 10 µg/mL in each case.

Consider REGN10987 (antibody), for which the IC50 (pseudovirus neutralization) in assay [1] and in assay [2] was over 10 µg/mL in each case.

For the substance S309 (antibody), the results for the IC50 (pseudovirus neutralization) in assay [1] and in assay [2] were 0.436 µg/mL and 0.582 µg/mL, respectively.
